{
  "source": "patent US20240261333A1",
  "about": "“NOVEL TARGETS FOR ENHANCING ANTI-TUMOR IMMUNITY” (THE BROAD INSTITUTE, INC., priority 2021, published 2024)",
  "key": {"UBTF (human)": {"target": "UBTF (human) (UniProt P17480)", "experiment": "IgG control IP from lysate of N-FLAG B3GNT2 cells, mass spectrometry"}, "ERP44 (human)": {"target": "ERP44 (human) (UniProt Q9BS26)", "sequence (Q9BS26 30-406 limits assumed)": "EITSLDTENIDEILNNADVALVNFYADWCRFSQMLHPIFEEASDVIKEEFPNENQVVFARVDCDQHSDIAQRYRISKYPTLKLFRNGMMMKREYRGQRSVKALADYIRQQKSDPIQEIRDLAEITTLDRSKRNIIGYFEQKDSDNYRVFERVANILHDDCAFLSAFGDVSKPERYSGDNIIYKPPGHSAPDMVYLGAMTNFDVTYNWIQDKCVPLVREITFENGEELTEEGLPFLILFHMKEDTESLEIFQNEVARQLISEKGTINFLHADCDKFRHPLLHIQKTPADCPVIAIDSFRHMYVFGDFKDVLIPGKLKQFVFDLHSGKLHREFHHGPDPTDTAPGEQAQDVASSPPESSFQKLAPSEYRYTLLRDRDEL", "experiment": "IgG control IP from lysate of N-FLAG B3GNT2 cells, mass spectrometry"}, "ERP29 (human)": {"target": "ERP29 (human) (UniProt P30040)", "experiment": "IgG control IP from lysate of N-FLAG B3GNT2 cells, mass spectrometry"}, "TRAFD1 (human)": {"target": "TRAFD1 (human) (UniProt O14545)", "experiment": "IgG control IP from lysate of N-FLAG B3GNT2 cells, mass spectrometry"}, "PSMA5 (human)": {"target": "PSMA5 (human) (UniProt P28066)", "sequence (P28066 whole entry)": "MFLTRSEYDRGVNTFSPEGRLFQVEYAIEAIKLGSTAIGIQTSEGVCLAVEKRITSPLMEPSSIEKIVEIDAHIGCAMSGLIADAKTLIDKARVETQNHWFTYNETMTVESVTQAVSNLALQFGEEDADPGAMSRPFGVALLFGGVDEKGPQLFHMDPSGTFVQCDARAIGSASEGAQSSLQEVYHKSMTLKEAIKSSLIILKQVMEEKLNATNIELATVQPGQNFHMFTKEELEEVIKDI", "experiment": "IgG control IP from lysate of N-FLAG B3GNT2 cells, mass spectrometry"}, "ABCD1 (human)": {"target": "ABCD1 (human) (UniProt P33897)", "experiment": "IgG control IP from lysate of N-FLAG B3GNT2 cells, mass spectrometry"}, "RPL15 (human)": {"target": "RPL15 (human) (UniProt P61313)", "experiment": "IgG control IP from lysate of N-FLAG B3GNT2 cells, mass spectrometry"}, "PSMB4 (human)": {"target": "PSMB4 (human) (UniProt P28070)", "experiment": "IgG control IP from lysate of N-FLAG B3GNT2 cells, mass spectrometry"}, "LARP4 (human)": {"target": "LARP4 (human) (UniProt Q71RC2)", "experiment": "IgG control IP from lysate of N-FLAG B3GNT2 cells, mass spectrometry"}, "PDIA4 (human)": {"target": "PDIA4 (human) (UniProt P13667)", "experiment": "IgG control IP from lysate of N-FLAG B3GNT2 cells, mass spectrometry"}, "RCN1 (human)": {"target": "RCN1 (human) (UniProt Q15293)", "sequence (Q15293 30-331 limits assumed)": "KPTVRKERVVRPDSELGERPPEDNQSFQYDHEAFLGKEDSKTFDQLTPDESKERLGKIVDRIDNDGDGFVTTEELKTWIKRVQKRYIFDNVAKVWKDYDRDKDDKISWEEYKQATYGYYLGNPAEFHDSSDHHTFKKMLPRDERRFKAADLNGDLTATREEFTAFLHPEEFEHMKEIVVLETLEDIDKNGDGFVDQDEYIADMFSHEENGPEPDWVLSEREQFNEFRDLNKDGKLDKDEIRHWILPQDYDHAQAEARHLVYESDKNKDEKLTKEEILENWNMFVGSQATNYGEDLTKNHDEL", "experiment": "IgG control IP from lysate of N-FLAG B3GNT2 cells, mass spectrometry"}, "HSP90AB1 (human)": {"target": "HSP90AB1 (human) (UniProt P08238)", "sequence (P08238 2-724 limits assumed)": "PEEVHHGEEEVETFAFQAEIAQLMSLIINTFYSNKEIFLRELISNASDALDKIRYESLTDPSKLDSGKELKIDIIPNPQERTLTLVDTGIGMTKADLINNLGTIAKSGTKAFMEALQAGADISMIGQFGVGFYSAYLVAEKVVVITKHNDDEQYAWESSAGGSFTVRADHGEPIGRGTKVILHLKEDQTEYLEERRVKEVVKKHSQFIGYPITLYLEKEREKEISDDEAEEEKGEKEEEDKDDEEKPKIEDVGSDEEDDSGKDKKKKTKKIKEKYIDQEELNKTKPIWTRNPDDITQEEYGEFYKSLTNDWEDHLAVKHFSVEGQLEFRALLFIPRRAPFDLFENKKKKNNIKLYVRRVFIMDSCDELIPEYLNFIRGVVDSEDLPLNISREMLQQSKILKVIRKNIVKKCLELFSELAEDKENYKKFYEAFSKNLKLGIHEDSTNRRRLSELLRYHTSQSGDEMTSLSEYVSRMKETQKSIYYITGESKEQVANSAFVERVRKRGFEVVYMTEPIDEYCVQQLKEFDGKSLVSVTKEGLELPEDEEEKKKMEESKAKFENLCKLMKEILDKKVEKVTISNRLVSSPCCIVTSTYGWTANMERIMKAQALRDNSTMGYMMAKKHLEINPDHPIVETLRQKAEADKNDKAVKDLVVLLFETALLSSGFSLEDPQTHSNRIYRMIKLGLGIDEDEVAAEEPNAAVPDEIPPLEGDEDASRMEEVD", "experiment": "IgG control IP from lysate of N-FLAG B3GNT2 cells, mass spectrometry"}, "RRBP1 (human)": {"target": "RRBP1 (human) (UniProt Q9P2E9)", "experiment": "IgG control IP from lysate of N-FLAG B3GNT2 cells, mass spectrometry"}, "SLC25A22 (human)": {"target": "SLC25A22 (human) (UniProt Q9H936)", "experiment": "IgG control IP from lysate of N-FLAG B3GNT2 cells, mass spectrometry"}, "KTN1 (human)": {"target": "KTN1 (human) (UniProt Q86UP2)", "experiment": "IgG control IP from lysate of N-FLAG B3GNT2 cells, mass spectrometry"}, "RPL34 (human)": {"target": "RPL34 (human) (UniProt P49207)", "experiment": "IgG control IP from lysate of N-FLAG B3GNT2 cells, mass spectrometry"}, "ELOC (human)": {"target": "ELOC (human) (UniProt Q15369)", "sequence (Q15369 whole entry)": "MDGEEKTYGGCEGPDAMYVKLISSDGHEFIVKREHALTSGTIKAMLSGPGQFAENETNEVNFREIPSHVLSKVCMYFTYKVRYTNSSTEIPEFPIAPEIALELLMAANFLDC", "experiment": "IgG control IP from lysate of N-FLAG B3GNT2 cells, mass spectrometry"}, "SFXN3 (human)": {"target": "SFXN3 (human) (UniProt Q9BWM7)", "experiment": "IgG control IP from lysate of N-FLAG B3GNT2 cells, mass spectrometry"}, "LDHA (human)": {"target": "LDHA (human) (UniProt P00338)", "experiment": "IgG control IP from lysate of N-FLAG B3GNT2 cells, mass spectrometry"}, "NTPCR (human)": {"target": "NTPCR (human) (UniProt Q9BSD7)", "sequence (Q9BSD7 2-190 limits assumed)": "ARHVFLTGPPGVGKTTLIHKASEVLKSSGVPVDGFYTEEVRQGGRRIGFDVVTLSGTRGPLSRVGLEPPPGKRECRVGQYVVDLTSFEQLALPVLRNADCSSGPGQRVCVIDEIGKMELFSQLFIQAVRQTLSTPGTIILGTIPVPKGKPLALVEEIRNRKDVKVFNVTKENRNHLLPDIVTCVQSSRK", "experiment": "IgG control IP from lysate of N-FLAG B3GNT2 cells, mass spectrometry"}, "H1FX (human)": {"target": "H1FX (human) (UniProt Q92522)", "sequence (Q92522 2-213 limits assumed)": "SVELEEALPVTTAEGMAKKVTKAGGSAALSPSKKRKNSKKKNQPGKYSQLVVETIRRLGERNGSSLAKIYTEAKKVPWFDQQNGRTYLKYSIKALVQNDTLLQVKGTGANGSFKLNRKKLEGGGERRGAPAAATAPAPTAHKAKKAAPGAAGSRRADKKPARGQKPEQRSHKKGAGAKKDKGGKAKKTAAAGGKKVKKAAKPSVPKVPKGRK", "experiment": "IgG control IP from lysate of N-FLAG B3GNT2 cells, mass spectrometry"}, "PXN (human)": {"target": "PXN (human) (UniProt P49023)", "experiment": "IgG control IP from lysate of N-FLAG B3GNT2 cells, mass spectrometry"}, "ACSL3 (human)": {"target": "ACSL3 (human) (UniProt O95573)", "sequence (O95573 whole entry)": "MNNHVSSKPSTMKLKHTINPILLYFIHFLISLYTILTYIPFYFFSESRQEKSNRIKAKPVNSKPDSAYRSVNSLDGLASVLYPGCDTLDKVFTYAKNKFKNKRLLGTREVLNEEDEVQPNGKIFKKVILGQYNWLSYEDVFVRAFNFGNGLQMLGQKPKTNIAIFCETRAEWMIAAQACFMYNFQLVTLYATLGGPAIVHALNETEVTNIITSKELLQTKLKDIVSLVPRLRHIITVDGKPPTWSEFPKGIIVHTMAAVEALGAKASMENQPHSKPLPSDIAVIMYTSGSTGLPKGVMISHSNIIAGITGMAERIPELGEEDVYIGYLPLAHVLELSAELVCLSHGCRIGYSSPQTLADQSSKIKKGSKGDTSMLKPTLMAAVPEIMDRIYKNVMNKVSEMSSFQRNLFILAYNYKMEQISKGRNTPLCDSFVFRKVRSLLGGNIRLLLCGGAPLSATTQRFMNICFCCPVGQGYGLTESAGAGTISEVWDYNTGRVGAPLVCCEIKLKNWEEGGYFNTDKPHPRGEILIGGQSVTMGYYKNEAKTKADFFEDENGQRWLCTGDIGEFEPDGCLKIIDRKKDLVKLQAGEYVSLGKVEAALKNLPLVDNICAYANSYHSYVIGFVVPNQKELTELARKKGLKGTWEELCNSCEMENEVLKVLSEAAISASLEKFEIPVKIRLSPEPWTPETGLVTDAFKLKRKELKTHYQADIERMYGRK", "experiment": "IgG control IP from lysate of N-FLAG B3GNT2 cells, mass spectrometry"}, "IPO7 (human)": {"target": "IPO7 (human) (UniProt O95373)", "experiment": "IgG control IP from lysate of N-FLAG B3GNT2 cells, mass spectrometry"}, "AIFM1 (human)": {"target": "AIFM1 (human) (UniProt O95831)", "experiment": "IgG control IP from lysate of N-FLAG B3GNT2 cells, mass spectrometry"}, "FBXO6 (human)": {"target": "FBXO6 (human) (UniProt Q9NRD1)", "experiment": "IgG control IP from lysate of N-FLAG B3GNT2 cells, mass spectrometry"}, "TECR (human)": {"target": "TECR (human) (UniProt Q9NZ01)", "experiment": "IgG control IP from lysate of N-FLAG B3GNT2 cells, mass spectrometry"}, "PSMC2 (human)": {"target": "PSMC2 (human) (UniProt P35998)", "sequence (P35998 2-433 limits assumed)": "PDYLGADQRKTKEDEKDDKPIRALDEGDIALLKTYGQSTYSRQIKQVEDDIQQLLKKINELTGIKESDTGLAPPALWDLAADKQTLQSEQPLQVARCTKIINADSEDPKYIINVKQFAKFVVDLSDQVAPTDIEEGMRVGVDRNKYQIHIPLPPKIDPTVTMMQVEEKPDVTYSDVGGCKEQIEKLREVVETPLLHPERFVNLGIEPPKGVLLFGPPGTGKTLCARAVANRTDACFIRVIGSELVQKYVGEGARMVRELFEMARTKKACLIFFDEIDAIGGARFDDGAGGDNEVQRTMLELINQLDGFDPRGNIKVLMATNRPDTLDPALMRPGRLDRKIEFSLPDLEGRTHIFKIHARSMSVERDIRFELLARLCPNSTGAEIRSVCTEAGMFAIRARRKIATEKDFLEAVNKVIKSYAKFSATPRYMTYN", "experiment": "IgG control IP from lysate of N-FLAG B3GNT2 cells, mass spectrometry"}, "EEF2 (human)": {"target": "EEF2 (human) (UniProt P13639)", "experiment": "IgG control IP from lysate of N-FLAG B3GNT2 cells, mass spectrometry"}, "TUBA1C (human)": {"target": "TUBA1C (human) (UniProt Q9BQE3)", "experiment": "IgG control IP from lysate of N-FLAG B3GNT2 cells, mass spectrometry"}, "ZRANB2 (human)": {"target": "ZRANB2 (human) (UniProt O95218)", "sequence (O95218 other isoform, or with tags, fused parts or gaps limits assumed)": "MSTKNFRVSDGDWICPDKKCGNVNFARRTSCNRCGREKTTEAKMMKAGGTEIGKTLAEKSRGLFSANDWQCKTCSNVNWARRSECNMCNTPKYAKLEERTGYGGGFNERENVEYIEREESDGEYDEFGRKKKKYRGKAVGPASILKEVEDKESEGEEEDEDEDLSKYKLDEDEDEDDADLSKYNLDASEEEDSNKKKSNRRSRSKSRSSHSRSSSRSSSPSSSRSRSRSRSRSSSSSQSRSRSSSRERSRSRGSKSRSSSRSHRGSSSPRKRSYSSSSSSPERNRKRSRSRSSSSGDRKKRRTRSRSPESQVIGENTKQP", "experiment": "IgG control IP from lysate of N-FLAG B3GNT2 cells, mass spectrometry"}, "ATAD3A (human)": {"target": "ATAD3A (human) (UniProt Q9NVI7)", "experiment": "IgG control IP from lysate of N-FLAG B3GNT2 cells, mass spectrometry"}, "IFI16 (human)": {"target": "IFI16 (human) (UniProt Q16666)", "sequence (Q16666 other isoform, or with tags, fused parts or gaps limits assumed)": "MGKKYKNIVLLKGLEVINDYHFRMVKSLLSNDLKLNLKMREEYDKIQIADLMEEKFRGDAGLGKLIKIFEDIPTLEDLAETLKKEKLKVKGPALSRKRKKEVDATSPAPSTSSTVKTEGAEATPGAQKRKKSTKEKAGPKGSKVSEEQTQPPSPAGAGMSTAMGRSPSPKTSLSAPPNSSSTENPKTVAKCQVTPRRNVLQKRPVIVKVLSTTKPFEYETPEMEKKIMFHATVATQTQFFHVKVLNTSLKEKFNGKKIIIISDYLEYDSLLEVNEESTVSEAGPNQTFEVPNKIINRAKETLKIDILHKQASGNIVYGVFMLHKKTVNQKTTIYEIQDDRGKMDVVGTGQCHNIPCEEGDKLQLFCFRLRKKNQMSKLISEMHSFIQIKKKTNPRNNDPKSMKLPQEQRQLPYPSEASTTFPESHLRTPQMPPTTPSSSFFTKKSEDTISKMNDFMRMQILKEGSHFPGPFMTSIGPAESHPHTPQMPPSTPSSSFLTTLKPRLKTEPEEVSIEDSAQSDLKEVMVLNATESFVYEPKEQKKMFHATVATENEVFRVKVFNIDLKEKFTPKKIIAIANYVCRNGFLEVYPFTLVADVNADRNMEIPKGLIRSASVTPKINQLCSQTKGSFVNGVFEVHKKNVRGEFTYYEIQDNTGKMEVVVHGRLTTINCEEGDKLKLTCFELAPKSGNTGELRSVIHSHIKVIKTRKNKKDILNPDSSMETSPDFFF", "experiment": "IgG control IP from lysate of N-FLAG B3GNT2 cells, mass spectrometry"}, "PGAM5 (human)": {"target": "PGAM5 (human) (UniProt Q96HS1)", "sequence (Q96HS1 whole entry)": "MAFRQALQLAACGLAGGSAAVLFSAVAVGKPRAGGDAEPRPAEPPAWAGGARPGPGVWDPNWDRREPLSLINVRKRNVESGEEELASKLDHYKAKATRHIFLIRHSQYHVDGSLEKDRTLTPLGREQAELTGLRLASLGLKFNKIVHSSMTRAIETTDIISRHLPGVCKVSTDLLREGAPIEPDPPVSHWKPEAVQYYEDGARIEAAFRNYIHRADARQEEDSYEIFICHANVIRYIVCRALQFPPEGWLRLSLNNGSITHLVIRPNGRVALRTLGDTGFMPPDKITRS", "experiment": "IgG control IP from lysate of N-FLAG B3GNT2 cells, mass spectrometry"}, "STAU1 (human)": {"target": "STAU1 (human) (UniProt O95793)", "experiment": "IgG control IP from lysate of N-FLAG B3GNT2 cells, mass spectrometry"}, "HDGFL2 (human)": {"target": "HDGFL2 (human) (UniProt Q7Z4V5)", "experiment": "IgG control IP from lysate of N-FLAG B3GNT2 cells, mass spectrometry"}, "RPS6 (human)": {"target": "RPS6 (human) (UniProt P62753)", "experiment": "IgG control IP from lysate of N-FLAG B3GNT2 cells, mass spectrometry"}, "DNAJA3 (human)": {"target": "DNAJA3 (human) (UniProt Q96EY1)", "experiment": "IgG control IP from lysate of N-FLAG B3GNT2 cells, mass spectrometry"}, "HNRNPH1 (human)": {"target": "HNRNPH1 (human) (UniProt P31943)", "experiment": "co-IP with IgG control, lysate of N-FLAG B3GNT2 cells, mass spectrometry"}},
  "data": [
    {"substance": "IgG control (Millipore Sigma 12-371) (antibody)", "values": [
      {"measurement": "co-IP mass spectrometry count", "setting": "UBTF (human)", "result": 0},
      {"measurement": "co-IP mass spectrometry count", "setting": "ERP44 (human)", "result": 0},
      {"measurement": "co-IP mass spectrometry count", "setting": "ERP29 (human)", "result": 0},
      {"measurement": "co-IP mass spectrometry count", "setting": "TRAFD1 (human)", "result": 0},
      {"measurement": "co-IP mass spectrometry count", "setting": "PSMA5 (human)", "result": 0},
      {"measurement": "co-IP mass spectrometry count", "setting": "ABCD1 (human)", "result": 0},
      {"measurement": "co-IP mass spectrometry count", "setting": "RPL15 (human)", "result": 0},
      {"measurement": "co-IP mass spectrometry count", "setting": "PSMB4 (human)", "result": 0},
      {"measurement": "co-IP mass spectrometry count", "setting": "LARP4 (human)", "result": 0},
      {"measurement": "co-IP mass spectrometry count", "setting": "PDIA4 (human)", "result": 0},
      {"measurement": "co-IP mass spectrometry count", "setting": "RCN1 (human)", "result": 0},
      {"measurement": "co-IP mass spectrometry count", "setting": "HSP90AB1 (human)", "result": 0},
      {"measurement": "co-IP mass spectrometry count", "setting": "RRBP1 (human)", "result": 0},
      {"measurement": "co-IP mass spectrometry count", "setting": "SLC25A22 (human)", "result": 0},
      {"measurement": "co-IP mass spectrometry count", "setting": "KTN1 (human)", "result": 0},
      {"measurement": "co-IP mass spectrometry count", "setting": "RPL34 (human)", "result": 0},
      {"measurement": "co-IP mass spectrometry count", "setting": "ELOC (human)", "result": 0},
      {"measurement": "co-IP mass spectrometry count", "setting": "SFXN3 (human)", "result": 0},
      {"measurement": "co-IP mass spectrometry count", "setting": "LDHA (human)", "result": 0},
      {"measurement": "co-IP mass spectrometry count", "setting": "NTPCR (human)", "result": 0},
      {"measurement": "co-IP mass spectrometry count", "setting": "H1FX (human)", "result": 0},
      {"measurement": "co-IP mass spectrometry count", "setting": "PXN (human)", "result": 0},
      {"measurement": "co-IP mass spectrometry count", "setting": "ACSL3 (human)", "result": 0},
      {"measurement": "co-IP mass spectrometry count", "setting": "IPO7 (human)", "result": 0},
      {"measurement": "co-IP mass spectrometry count", "setting": "AIFM1 (human)", "result": 0},
      {"measurement": "co-IP mass spectrometry count", "setting": "FBXO6 (human)", "result": 0},
      {"measurement": "co-IP mass spectrometry count", "setting": "TECR (human)", "result": 0},
      {"measurement": "co-IP mass spectrometry count", "setting": "PSMC2 (human)", "result": 0},
      {"measurement": "co-IP mass spectrometry count", "setting": "EEF2 (human)", "result": 0},
      {"measurement": "co-IP mass spectrometry count", "setting": "TUBA1C (human)", "result": 8},
      {"measurement": "co-IP mass spectrometry count", "setting": "ZRANB2 (human)", "result": 0},
      {"measurement": "co-IP mass spectrometry count", "setting": "ATAD3A (human)", "result": 0},
      {"measurement": "co-IP mass spectrometry count", "setting": "IFI16 (human)", "result": 0},
      {"measurement": "co-IP mass spectrometry count", "setting": "PGAM5 (human)", "result": 0},
      {"measurement": "co-IP mass spectrometry count", "setting": "STAU1 (human)", "result": 0},
      {"measurement": "co-IP mass spectrometry count", "setting": "HDGFL2 (human)", "result": 0},
      {"measurement": "co-IP mass spectrometry count", "setting": "RPS6 (human)", "result": 2},
      {"measurement": "co-IP mass spectrometry count", "setting": "DNAJA3 (human)", "result": 0},
      {"measurement": "co-IP/MS count, N-term IgG", "setting": "HNRNPH1 (human)", "result": 11}
    ]}
  ]
}
